Test [1] concerns the target T1, scaffoldin Scaf-ct displayed on the yeast cell surface (chimeric: C. cellulolyticum, C. …).
T1 construct: also called Sacf-ct; not shown: yeast surface display anchor of vector pCTCON2; C-terminal c-Myc tag
T1 chain: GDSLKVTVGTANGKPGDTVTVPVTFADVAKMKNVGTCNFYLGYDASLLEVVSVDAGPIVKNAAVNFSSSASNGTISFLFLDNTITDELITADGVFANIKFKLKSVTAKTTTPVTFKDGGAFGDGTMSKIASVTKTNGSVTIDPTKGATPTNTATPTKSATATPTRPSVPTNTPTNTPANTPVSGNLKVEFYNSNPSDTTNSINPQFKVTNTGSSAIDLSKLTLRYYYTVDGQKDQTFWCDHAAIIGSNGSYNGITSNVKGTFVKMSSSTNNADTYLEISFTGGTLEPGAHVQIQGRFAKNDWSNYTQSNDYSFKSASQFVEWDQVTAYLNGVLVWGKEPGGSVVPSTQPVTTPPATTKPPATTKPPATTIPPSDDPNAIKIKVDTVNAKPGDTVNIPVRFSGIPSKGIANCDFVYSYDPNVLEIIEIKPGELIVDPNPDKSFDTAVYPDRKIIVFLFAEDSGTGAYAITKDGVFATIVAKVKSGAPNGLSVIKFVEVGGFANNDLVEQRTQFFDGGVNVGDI
The experiment in a line: immunofluorescence microscopy with anti-His6 on yeast displaying Scaf-ct incubated with E. coli lysate.

For test [2], the target named is T2, scaffoldin Scaf-c displayed on the yeast cell surface (chimeric: C. cellulolyticum cohesin …).
T2 construct: also called Sacf-c; not shown: yeast surface display anchor of vector pCTCON2; C-terminal c-Myc tag
T2 chain: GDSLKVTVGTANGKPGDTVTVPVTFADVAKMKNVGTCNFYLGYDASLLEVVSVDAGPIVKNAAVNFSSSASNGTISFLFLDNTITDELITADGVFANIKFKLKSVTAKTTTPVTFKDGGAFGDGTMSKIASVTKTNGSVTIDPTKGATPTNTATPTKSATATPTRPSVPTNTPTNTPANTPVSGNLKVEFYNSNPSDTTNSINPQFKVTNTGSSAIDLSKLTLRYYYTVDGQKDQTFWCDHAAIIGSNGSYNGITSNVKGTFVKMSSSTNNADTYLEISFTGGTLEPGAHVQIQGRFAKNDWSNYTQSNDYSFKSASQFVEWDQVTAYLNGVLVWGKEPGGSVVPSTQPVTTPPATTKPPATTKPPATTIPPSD
The experiment in a line: immunofluorescence microscopy with anti-His6 on yeast displaying Scaf-c incubated with E. coli lysate.

The target of test [3] is T3, trifunctional scaffoldin Scaf-ctf displayed on the yeast (S. cerevisiae EBY100) cell surface (chimeric: C. cellulolyticum, C. …, Displayed on the S. cerevisiae EBY100 cell surface through an N-terminal anchor fusion, which the letters do not carry.).
T3 construct: also called Sacf-ctf; SCAF6; not shown: N-terminal yeast display anchor and linker of vector pCTCON2 (called the GPI anchor); C-terminal c-Myc tag; the vector junctions; possibly a His stretch carried over from pETscaf6, since reverse primer R1SalI anneals on His codons
T3 chain: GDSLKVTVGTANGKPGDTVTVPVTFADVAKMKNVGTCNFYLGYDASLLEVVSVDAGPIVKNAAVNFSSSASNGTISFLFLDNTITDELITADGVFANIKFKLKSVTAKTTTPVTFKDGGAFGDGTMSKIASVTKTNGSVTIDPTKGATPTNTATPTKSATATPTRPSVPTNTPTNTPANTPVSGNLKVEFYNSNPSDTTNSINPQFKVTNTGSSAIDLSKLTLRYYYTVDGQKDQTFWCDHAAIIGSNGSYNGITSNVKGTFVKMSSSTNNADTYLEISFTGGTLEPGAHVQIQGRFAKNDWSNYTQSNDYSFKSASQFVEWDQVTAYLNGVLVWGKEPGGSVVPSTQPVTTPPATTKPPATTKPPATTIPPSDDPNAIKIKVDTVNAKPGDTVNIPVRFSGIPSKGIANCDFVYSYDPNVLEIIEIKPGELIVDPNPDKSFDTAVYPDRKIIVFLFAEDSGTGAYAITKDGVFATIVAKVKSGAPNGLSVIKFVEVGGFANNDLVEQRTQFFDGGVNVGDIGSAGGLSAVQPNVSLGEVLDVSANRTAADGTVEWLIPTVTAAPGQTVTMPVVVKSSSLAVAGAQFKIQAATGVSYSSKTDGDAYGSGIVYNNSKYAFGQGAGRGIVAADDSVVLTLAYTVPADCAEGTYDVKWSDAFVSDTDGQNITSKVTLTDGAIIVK
The experiment in a line: immunofluorescence microscopy, yeast displaying Scaf-ctf incubated with E. coli lysate.

B1: endoglucanase CelG from C. cellulolyticum fused to a dockerin domain from R. flavefaciens (Gf), His6-tagged (enzyme)
chain: MGTYNYGEALQKSIMFYEFQRSGDLPADKRDNWRDDSGMKDGSDVGVDLTGGWYDAGDHVKFNLPMSYTSAMLAWSLYEDKDAYDKSGQTKYIMDGIKWANDYFIKCNPTPGVYYYQVGDGGKDHSWWGPAEVMQMERPSFKVDASKPGSAVCASTAASLASAAVVFKSSDPTYAEKCISHAKNLFDMADKAKSDAGYTAASGYYSSSSFYDDLSWAAVWLYLATNDSTYLDKAESYVPNWGKEQQTDIIAYKWGQCWDDVHYGAELLLAKLTNKQLYKDSIEMNLDFWTTGVNGTRVSYTPKGLAWLFQWGSLRHATTQAFLAGVYAEWEGCTPSKVSVYKDFLKSQIDYALGSTGRSFVVGYGVNPPQHPHHRTAHGSWTDQMTSPTYHRHTIYGALVGGPDNADGYTDEINNYVNNEIACDYNAGFTGALAKMYKHSGGDPIPNFKAIEKITNDEVIIKAGLNSTGPNYTEIKAVVYNQTGWPARVTDKISFKYFMDLSEIVAAGIDPLSLVTSSNYSEGKNTKVSGVLPWDVSNNVYYVNVDLTGENIYPGGQSACRREVQFRIAAPQGRRYWNPKNDFSYDGLPTTSTVNTVTNIPVYDNGVKVFGNEPAGGSEPGTKLVPTWGDTNCDGVVNVADVVVLNRFLNDPTYSNITDQGKVNADVVDPQDKSGAAVDPAGVKLTVADSEAILKAIVELITLPQHHHHHH
notes: Expressed in E. coli; also called CelG-Df
For the molecule B1, the binding result in test [1] and in test [2] was “no binding” each time.

B2: exoglucanase CelE from C. cellulolyticum fused to a dockerin domain from the same species (Ec), His6-tagged (enzyme)
chain: MLVGAGDLIRNHTFDNRVGLPWHVVESYPAKASFEITSDGKYKITAQKIGEAGKGERWDIQFRHRGLALQQGHTYTVKFTVTASRACKIYPKIGDQGDPYDEYWNMNQQWNFLELQANTPKTVTQTFTQTKGDKKNVEFAFHLAPDKTTSEAQNPASFQPITYTFDEIYIQDPQFAGYTEDPPEPTNVVRLNQVGFYPNADKIATVATSSTTPINWQLVNSTGAAVLTGKSTVKGADRASGDNVHIIDFSSYTTPGTDYKIVTDVSVTKAGDNESMKFNIGDDLFTQMKYDSMKYFYHNRSAIPIQMPYCDQSQWARPAGHTTDILAPDPTKDYKANYTLDVTGGWYDAGDHGKYVVNGGIATWTVMNAYERALHMGGDTSVAPFKDGSLAIPEAEVYPDILDEARYQLINMKTLLNSQVPAGKYAGMAHHKAHDERWTALAVRPDQDTMKRWLQPPSTAATLNLAAIAAQSSRLWKQFDSAFATKCLTAAETARDAAVAHPEIYATMEQGAGGGAYGDNYVLDDFYWAACELYATTGSDKYLNYIKSSKHYLEMPTELTGGENTGITGAFDWGCTAGMGTITLALVPTKLPAADVATAKANIQAAADKFISISKAQGYGVPLEEKVISSPFDASVVKGFQWGSNSFVINEAIVMSYAYEFSDVNGTKNNKYINGALTAMDYLLGRNPNIQSYITGYGDNPLENPHHRFWAYQADNTFPKPPPGCLSGGPNSGLQDPWVKGSGWQPGERPAEKCFMDNIESWSTNEITINWNAPLVWISAYLDEKGPEIGGSVTPPTNLGDVNGDGNKDALDFAALKKALLSQDTSTINVANADINKDGSIDAVDFALLKSFLLGKITQHHHHHH
notes: Expressed in E. coli and used as cell lysate or purified; also called CelE-Dc
In the case of B2, in test [3], the binding result is “binds”.
